Results from patent US12337037B2, “Taxol conjugate compounds, pharmaceutical compositions comprising the same, and methods for their use” (N1 Life, Inc, priority 2021, dated 2025).
Where “and” joins values, the source holds several entries; their conditions need not be identical. Equal values may be shown once.

Columns and labels:
[1] = In-life pharmacokinetics, single IP dose; conditions: CD-1 mice
Procedure: General Procedure: A single-dose study was conducted in CD-1 mice. Groups (12 animals in each group) were administered an intraperitoneal (IP) dose of either Taxol (10 mg/kg), Compound 3 (38.4 mg/kg), or Compound 5 (38.4 mg/kg). Serial or terminal plasma samples (n=3 per timepoint) were collected from study animals at pre-determined times post-dose. Each mouse was serial bled 2 times (orbital bleeds) and one terminal bleed. The samples were collected in pre-chilled tubes for all steps. Upon completion of the in-life phase, the samples were analyzed using LC-MS/MS.
Assay Procedures: For analysis of analytes in mouse plasma, a 50.0 μL aliquot of each study sample was extracted with protein precipitation using 200 μl of 5% formic acid in methanol. Internal standards were added by adding 25.0 μL methanol containing 250 ng/mL tolbutamide and 1000 ng/mL Taxol-d5.
For Compound 5 and Compound 3 analysis, following centrifugation at 4000 rpm for 10 minutes, 150 μL of the supernatant was transferred to a clean 96 well collection plate for LC-MS/MS analysis.
For Taxol analysis, following centrifugation at 4000 rpm for 10 minutes, 75.0 μL of the supernatant was transferred into a clean 96 well collection plate containing 75.0 μL of deionized water. The plate was then capped and vortexed at 1650 rpm for 3 minutes prior to LC-MS/MS analysis.
Preparation of Standards and Quality Controls: Calibration standards of Compound 3 in mouse plasma were prepared on wet ice in blank mouse plasma at concentrations of 5.00, 10.0, 50.0, 100, 200, 250, 450, and 500 ng/mL. The low quality control ([LQC], 15.0 ng/mL), medium quality control ([MQC], 120 ng/mL) and high quality control ([HQC], 400 ng/mL) were prepared in blank mouse plasma.
Calibration standards of Taxol in mouse plasma were prepared on wet ice in blank mouse plasma at concentrations of 2.50, 5.00, 25.0, 125, 625, 1250, 2250, and 2500 ng/mL. The LQC, (7.50 ng/mL), MQC (120 ng/mL), and HQC (2000 ng/mL) were prepared in blank mouse plasma.
Sample Analyses: Mouse plasma samples were received from the in-life and were stored in a freezer set to −80° C.
Study samples were analyzed in 2 batches. At a minimum, each batch included the following: one set of calibration standards, a matrix blank (blank mouse plasma), a control-zero sample (blank mouse plasma with internal standard), and duplicate QC samples at 3 concentration levels (low, medium, and high) in addition to the study samples. Within each batch, the study samples were bracketed by calibration standards or QC samples.
Data Acquisition and Processing: The LC-MS/MS data acquisition was performed on an Agilent 1290 Infinity II HPLC system coupled with an AB SCIEX API 6500+ mass spectrometer. Chromatograms were integrated using Analyst 1.6.3 software. A weighted (1/x2, x=concentration) linear regression was used to generate the calibration curves and the regression was performed using Analyst 1.6.3 software. The concentration of the analyte in the samples was calculated using the peak area ratios of analyte to internal standard based on the calibration curve.

[2] = tested on: NCI-H460-luc2 human intracranial cells; assay: Efficacy against brain cancer: survival in NCI-H460-luc2 intracranial model; type: in vivo, Female BALB/c nude mice; conditions: for Increase Life Span (%): vs vehicle group; for Median Survival Time: MST ± SEM
Procedure: Cell Culture: Luciferase marked NCI-H460-luc2 human intracranial cells were maintained in vitro as a monolayer culture in ATCC formulated RPMI1640 medium supplemented with 10% heat inactivated fetal bovine serum, 100 U/mL penicillin and 100 μg/mL streptomycin at 37° C. in an atmosphere of 5% CO2 in air. The tumor cells were routinely subcultured twice weekly by trypsin-EDTA treatment. The cells growing in an exponential growth phase were harvested and counted for tumor inoculation.
Tumor Inoculation and Animal Grouping: Female BALB/c nude mice were anesthetized with avertin (20 μL/g). The animals were dosed intraperitoneally with 10 mg/kg of carprofen 30 minutes post-surgery for pain relief.
The anesthetized mouse was properly positioned. The surgical area was prepped with 70% ethanol solution. Using a sterile scalpel, a sagittal incision was made over the parieto-occipital bone, approximately 1 cm long. The exposed skull surface was then cleaned using a cotton swab soaked in 0.9% saline. Prior to tumor cell injection, a sterile 25 gauge sharp needle was used to puncture the skull at 2 mm to the right of the bregma and 1 mm anterior to the coronal suture, thereby creating an opening for the injection of tumor cells. Prior to drawing cells into the syringe, the contents of the cell suspension was mixed by tapping with finger. The syringe was loaded with the desired amount of cell suspension, and extra care was taken to avoid air bubbles. The outside of syringe was then cleaned with an alcohol swab to wipe the exterior free of any adherent cells, which helped to prevent extracranial tumor establishment and growth. To ensure that the appropriate injection depth was achieved, a 3 mm length was cut off on pointed end of a P20 pipetteman tip by a scalpel. This section of the tip was fitted over the syringe to limit the injection depth, and to ensure that the tip of the syringe needle was 3 mm from the underside of the skull. The syringe was placed perpendicular to the skull, in the hole previously created. And the cell suspension was slowly injected (a 3 μL suspension contains 1×10^5 NCI-H460-luc2 cells in 20% Matrigel should be injected over a 1 minute period). Intraventricular injection of cells and subsequent spinal dissemination was prevented by appropriate angle of syringe insertion. Upon completion of injection, the needle was left in place for another minute, and then slowly withdrawn. The hole as closed with medical anastomotic glue (OB). Using forceps, the scalp was drawn together over the skull and the incision was closed with surgical suture. The mice were kept warm until completely recovered from anesthesia.
Animals were selected and randomized (based on their bioluminescence density) on day 4 after tumor implantation.
Observations: During routine monitoring, the animals were checked daily for any effects of tumor growth and treatments on normal behavior such as mobility, food and water consumption (by looking only), body weight gain/loss (body weights were measured twice weekly or daily), eye/hair matting and any other abnormal effect stated in the protocol. Death and observed clinical signs were recorded on the basis of the numbers of animals within each subset.
Bioluminescence Measurements and Endpoints: The surgically inoculated mice were weighed and intraperitoneally administered luciferin at a dose of 150 mg/kg. Ten to fifteen minutes after the luciferin injection, the animals were pre-anesthetized with the mixture gas of oxygen and isoflurane. When the animals were in a complete anesthetic state, the mice were moved into the imaging chamber for bioluminescence measurements with an IVIS (Lumina II) imaging system.
The major endpoint was to determine if the tumor bioluminescence growth can be delayed, decreased, or vanished. […] The bioluminescence of the whole animal body, including primary and metastatic tumors, was measured and recorded once per week according to protocol (bioluminescence data not shown). […]

[3] = analyte: Taxol, IP single dose, Cmpd 3 / Cmpd 5 38.4 mg/kg, Taxol 10 mg/kg
[4] = analyte: the administered conjugate, 38.4 mg/kg IP single dose

Row | Structure (SMILES) | Taxol/Cmpd AUC Ratio ([1]; 38.4 mg/kg IP single dose) | AUC ratio Taxol/compound, times higher than AUC ratio of Taxol/Compound 5 ([1]; 38.4 mg/kg IP) [times] | T1/2 of released Taxol, longer than that of Taxol released from Compound 5 ([1]; 38.4 mg/kg IP) [%] | AUMC0-t (h*h*nmol/L) [1, 3] | AUMC0-t (h*h*nmol/L) [1, 4] [h*h*nmol/L] | Increase Life Span (%) ([2]; Compound 3 9.6 mg/kg) | Median Survival Time ([2]; Compound 3 9.6 mg/kg) [days] | Increase Life Span (%) ([2]; Compound 3 19.2 mg/kg) | Median Survival Time ([2]; Compound 3 19.2 mg/kg) [days] | survivors at the end point ([2]; Compound 3 38.4 mg/kg) | Increase Life Span (%) ([2]; Compound 3 38.4 mg/kg) | Median Survival Time ([2]; Compound 3 38.4 mg/kg, 38.4 mg/kg) | Cmax of parent compound, fold higher than that of Compound 3 ([1]; 38.4 mg/kg IP) | Increase Life Span (%) ([2]; Paclitaxel 10 mg/kg) | Median Survival Time ([2]; Paclitaxel 10 mg/kg)
1 | CC(=O)N[C@@H](CSSCCCC(=O)OC(C(=O)O[C@H]1C[C@@]2(O)[C@@H](OC(=O)c3ccccc3)[C@@H]3[C@]4(OC(C)=O)CO[C@@H]4C[C@H](O)[C@@]3(C)C(=O)[C@H](OC(C)=O)C(=C1C)C2(C)C)[C@@H](NC(=O)c1ccccc1)c1ccccc1)C(=O)N[C@H](CCCNC(=N)N)C(=O)N[C@H](CCCNC(=N)N)C(=O)N[C@H](CCCNC(=N)N)C(=O)N[C@H](CCCNC(=N)N)C(=O)N[C@H](CCCNC(=N)N)C(=O)N[C@H](CCCNC(=N)N)C(=O)N[C@H](CCCNC(=N)N)C(=O)N[C@H](CCCNC(=N)N)C(N)=O (stereo partly drawn) [Compound 3, Ac-L-Cysteine (paclitaxel-4-mercaptobutanoate)-D-Arginine8-NH2] | 81.84 | 20 | 33.3 | 72,372.302 h*h*nmol/L | 26.304 | 0.00 | 14 | −28.57 | 10 ± 2 | one mouse in Compound 3 38.4 mg/kg group was still alive | 0.00 | 14 days and 14 ± 1 days |  |  | 
2 | CC(=O)N[C@H](CSSCCCC(=O)O[C@@H](C(=O)O[C@H]1C[C@@]2(O)[C@@H](OC(=O)c3ccccc3)[C@@H]3[C@]4(OC(C)=O)CO[C@@H]4C[C@H](O)[C@@]3(C)C(=O)[C@H](OC(C)=O)C(=C1C)C2(C)C)[C@@H](NC(=O)c1ccccc1)c1ccccc1)C(=O)N[C@H](CCCNC(=N)N)C(=O)N[C@H](CCCNC(=N)N)C(=O)N[C@H](CCCNC(=N)N)C(=O)N[C@H](CCCNC(=N)N)C(=O)N[C@H](CCCNC(=N)N)C(=O)N[C@H](CCCNC(=N)N)C(=O)N[C@H](CCCNC(=N)N)C(=O)N[C@H](CCCNC(=N)N)C(N)=O [Compound 5, Ac-D-Cysteine (paclitaxel-4-mercaptobutanoate)-D-Arginine8-NH2] | 3.942 |  |  | 3274.99 h*h*nmol/L | 830.67 |  |  |  |  |  |  |  | over 100 fold |  | 
3 | CC(=O)O[C@H]1C(=O)[C@@]2(C)[C@H]([C@H](OC(=O)c3ccccc3)[C@]3(O)C[C@H](OC(=O)[C@H](O)[C@@H](NC(=O)c4ccccc4)c4ccccc4)C(C)=C1C3(C)C)[C@]1(OC(C)=O)CO[C@@H]1C[C@@H]2O [Taxol, paclitaxel] |  |  |  |  |  |  |  |  |  |  |  |  |  | −28.57 | 10 days and 10 ± 1 days
